In PMC5766103 (PLoS ONE, 2018):

Experiments:
[1] = clinical trials, moderate to severe psoriasis; ref [7]–[9]; cited from earlier work
Source text: Augmented expression of IL-17A is linked with various autoimmune disorders. Therefore, blocking activity of IL-17A has been of great therapeutic interest. Two approved antibody based therapeutics targeting IL-17A, Secukinumab and Ixekizumab, are currently being used for treatment of moderate to severe psoriasis. […] Moreover, current advanced clinical trials have shown promising results for treatment of ankylosing spondylitis and psoriatic arthritis ...

[2] = biological target: T1, IL-17A (Homo sapiens, UniProt Q16552); assay: Surface plasmon resonance (BIAcore T200) binding of peptides to captured Avi-tagged IL-17A; details: 8°C, 50 μl/min, 10 mM HEPES pH 7.5, 150 mM NaCl, 0.005% P20, 3% DMSO; global fit, 1:1 binding model; read-out: SPR KD1
T1 construct: His-tag; Flag-tag; made in house; host or cells: Sf9 insect cells (baculovirus)

[3] = biological target: Avi-tagged IL-17A (IL-17A molecule with a single biotin tag per dimer) (human) (UniProt Q16552); assay: AlphaScreen or HTRF; AlphaLISA competition: 2 nM IL-17RA-flag and 2 nM Avi-tagged IL-17A-His with peptide dilutions, 2 h at room temperature; streptavidin donor and anti-FLAG acceptor beads; 20 mM HEPES, 150 mM NaCl, 0.05% Tween-20, 0.1% HSA, pH 7, 1% DMSO; relative IC50, four parameter fit
[4] = biological target: Avi-tagged IL-17A (IL-17A molecule with a single biotin tag per dimer) (human) (UniProt Q16552); assay: SPR; Avi-tagged IL-17A (6000–9000 RU) captured on a streptavidin chip; peptides flowed at 50 μl/min; 8°C; 10 mM HEPES pH 7.5, 150 mM NaCl, 0.005% P20, 3% DMSO; global fit, 1:1 binding model
[5] = biological target: the molecule itself; assay: crystal structure; IL-17A at 7.1 mg/ml with 2 mM peptide; crystals at 8°C in 20% PEG 3350, 200 mM lithium chloride; 1.6 Å

For “Ixekizumab: approved antibody based therapeutic targeting IL-17A”, the “patient population with at least 75% reduction of disease severity (PASI75)” value [1] is given as 80%.

With `CSCC[C@@H]1NC(=O)[C@H](CC(=O)O)NC(=O)[C@H](Cc2ccc(O)cc2)NC(=O)[C@H](CCC(=O)O)NC(=O)[C@H](CC(C)C)NC(=O)[C@H](C(C)C)NC(=O)[C@H](Cc2c[nH]c3ccccc23)NC(=O)[C@@H](N)CSSC[C@@H](C(=O)N[C@@H](CCCNC(=N)N)C(=O)O)NC(=O)[C@H](Cc2c[nH]cn2)NC(=O)[C@H](CC(C)C)NC(=O)[C@H](C)NC(=O)CNC(=O)[C@H](Cc2ccccc2)NC1=O` [18–902] the Kd [2] was 1300 nM.

For “Secukinumab: approved antibody based therapeutic targeting IL-17A”, the “patient population with at least 75% reduction of disease severity (PASI75)” value [1] is given as 80%.

Work on CLDLQYDMFGALHCV [18–913] yielded an IC50 [3] of 1900 nM, a Kd [4] of 3870 nM and a koff [4] of 0.0528 s⁻¹. For the same molecule, the kon [4] was 13700 M⁻¹ s⁻¹.

B1: IL-17A residues 38–155 with the mutations N68D/C129S (ligand, human, UniProt Q16552 38-155, looked up)
chain: DKNFPRTVMVNLNIHNRNTNTNPKRSSDYYDRSTSPWNLHRNEDPERYPSVIWEAKCRHLGCINADGNVDYHMNSVPIQQEILVLRREPPHSPNSFRLEKILVSVGCTCVTPIVHHVA
notes: construct numbers and the two mutations count on the precursor protein; Crystallography construct
B1: binds [5].
